The values below come from patent US20240093240, “GENE FUNCTION CONTROL BY NOVEL GUIDE NUCLEIC ACID MECHANISM” (NATIONAL UNIVERSITY CORPORATION KOBE UNIVERSITY, published 2024).

Series [1] deals with T1, RsAgo (UniProt A4WYU7 A4WYU7:1-777).
T1 sequence: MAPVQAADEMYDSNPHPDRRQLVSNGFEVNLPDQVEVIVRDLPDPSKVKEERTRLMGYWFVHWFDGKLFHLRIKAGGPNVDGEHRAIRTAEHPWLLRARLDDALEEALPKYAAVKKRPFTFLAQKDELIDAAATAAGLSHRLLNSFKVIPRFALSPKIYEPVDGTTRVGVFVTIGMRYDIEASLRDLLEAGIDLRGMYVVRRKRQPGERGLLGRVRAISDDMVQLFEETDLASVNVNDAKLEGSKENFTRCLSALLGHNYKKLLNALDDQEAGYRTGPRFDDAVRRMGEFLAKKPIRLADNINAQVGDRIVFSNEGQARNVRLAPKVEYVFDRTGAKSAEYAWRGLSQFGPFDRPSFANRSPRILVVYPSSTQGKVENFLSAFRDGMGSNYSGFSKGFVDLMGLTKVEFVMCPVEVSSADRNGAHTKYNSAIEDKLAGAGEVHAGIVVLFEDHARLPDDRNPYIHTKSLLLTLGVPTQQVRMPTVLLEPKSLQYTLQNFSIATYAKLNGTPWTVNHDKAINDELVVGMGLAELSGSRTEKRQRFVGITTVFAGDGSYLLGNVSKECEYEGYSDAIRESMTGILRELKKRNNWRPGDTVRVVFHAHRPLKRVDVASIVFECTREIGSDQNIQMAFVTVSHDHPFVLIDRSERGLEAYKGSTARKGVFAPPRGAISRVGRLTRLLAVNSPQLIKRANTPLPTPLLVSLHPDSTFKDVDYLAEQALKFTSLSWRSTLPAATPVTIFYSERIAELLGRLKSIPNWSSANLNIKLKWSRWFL
Kind of series: EMSA; 20 mM HEPES-KOH pH 7.5, 200 mM NaCl, 5 mM MgCl2, 25 C. To be noted: tag removed by Ulp1 protease. How it is done:
(§1) The purified protein and synthetic oligonucleotide were mixed in the presence of the above reaction buffer and incubated for 20 minutes at 25° C. […] Detection was performed with Blue light LED.
For orientation: Mobility shift assays separate free from complexed probe on a gel.

In series [2] the target is T1, RsAgo. Kind of series: EMSA; 500 nM RsAgo, 100 nM guide, 100-1000 nM target; 5 mM MgCl2, 25 C. To be noted: tag removed by Ulp1 protease; label: 3'-FAM; duplex with 18 nt mismatched bubble over the target site. How it is done:
(§2) The purified protein (final 500 nM) and labelled guide RNA (final 100 nM) were mixed in the presence of the above reaction buffer and incubated for 15 minutes at 25° C. to form a complex. The target DNA was added (final 100 to 1000 nM) thereto.

In series [3] the target is T1, RsAgo. Kind of series: EMSA; cannot bind fully double stranded DNA on its own; 5 mM MgCl2, 25 C. To be noted: tag removed by Ulp1 protease; label: 3'-FAM. How it is done:
as §2

In series [4] the target is T1, RsAgo. As to the kind of experiment: EMSA; high affinity to 5'-P ssRNA; 5 mM MgCl2, 200 mM NaCl, 25 C. To be noted: tag removed by Ulp1 protease; label: 3'-FAM. How it is done:
as §1

Consider UUACAACCUACUACCUCG (ssRNA) [ssRNA 18 nt 5'-OH], for which, in the series with RsAgo [1] (label: 3'-FAM), the binding result is reported as “binds”.
Regarding CGAGGTAGTAGGTTGTAA (ssDNA) [ssDNA 18 nt], in the series with RsAgo [1] (label: 5'-FAM), the binding result is on record as “binds”.

B1: ssRNA 18 nt 5'-phosphate guide ; bubble target, 18 nt unpaired (ssRNA ; structured_DNA)
RNA: UUACAACCUACUACCUCG
DNA 1: GGATAACAATTCCCCTCTAGAAGTGGTTCGTGCTTCAACATGGGTCATCACCATCATC
DNA 2: GATGATGGTGATGACCCATGCGAGGTAGTAGGTTGTAACTAGAGGGGAATTGTTATCC
modifications: 5'-phosphate
B1: the binding result with RsAgo [2] is “binds”.

B2: ssRNA 18 nt 5'-phosphate guide ; fully double stranded target (ssRNA ; dsDNA)
RNA: UUACAACCUACUACCUCG
DNA 1: GGATAACAATTCCCCTCTAGTTACAACCTACTACCTCGCATGGGTCATCACCATCATC
DNA 2: B1 DNA 2
modifications: 5'-phosphate
As to B2, the binding result in the series with RsAgo [3] is “no binding”.
For the molecule UUACAACCUACUACCUCG (ssRNA, 5'-phosphate) [ssRNA 18 nt 5'-phosphate guide], in the series with RsAgo [4], the binding result was “binds”.
